This assay addresses HLA-A2.1 (human), A*02:0. Put plainly: cell-based or functional assay.

Turning to “A2-specific monoclonal antibody PA2.1 (ATCC HB 117)”, the Specific 51Cr release (%) by CTL A2 149, E:T 10, BT 549 targets, with anti-A2 (53 without) was 37%; the Specific 51Cr release (%) by CTL A2 149, E:T 10, MCF7 targets, with anti-A2 (38 without) came out at 13%; the Specific 51Cr release (%) by CTL A2 149, E:T 10, MDA 231 targets, with anti-A2 (24 without) is 5%; the Specific 51Cr release (%) by CTL A2 149, E:T 10, Ramos A2.1 targets, with anti-A2 (39 without) came to 12%. The Specific 51Cr release (%) by CTL A2 149, E:T 10, SW 480 targets, with anti-A2 (55 without) was 26%; the Specific 51Cr release (%) by CTL A2 264, E:T 10, BT 549 targets, with anti-A2 (79 without) came out at 47%; the Specific 51Cr release (%) by CTL A2 264, E:T 10, MCF7 targets, with anti-A2 (79 without) is 38%; the Specific 51Cr release (%) by CTL A2 264, E:T 10, MDA 231 targets, with anti-A2 (31 without) is 10%. The substance also registered a Specific 51Cr release (%) by CTL A2 264, E:T 10, Ramos A2.1 targets, with anti-A2 (43 without) of 0% and a Specific 51Cr release (%) by CTL A2 264, E:T 10, SW 480 targets, with anti-A2 (59 without) of 17%.
